This is an account of results in patent US20040115763A1.

The target in the assay is secreted FLAG peptide-fused G6 polypeptide G6sec2 (produced with the pVL1393-F2G6sec2-derived recombinant virus) (human) (UniProt Q9BYG0). The assay is described as follows: Western blotting with anti-FLAG antibody. In general terms: In western blotting, separated proteins are transferred to a membrane and probed.

Consider “anti-FLAG peptide antibody (of YEAST AMINO-TERMINAL FLAG EXPRESSION KIT, manufactured by SIGMA)”, for which the strength of band (band of G6sec1 eluate defined as 1) (relative to G6sec1 = 1) came out at 1.05.
